Reference: PMC11793155

B1: ACTRIIB (activin receptor type IIB, ACVR2B): tunicamycin (TM) (protein)
parent chain: MTAPWVALALLWGSLCAGSGRGEAETRECIYYNANWELERTNQSGLERCEGEQDKRLHCYASWRNSSGTIELVKKGCWLDDFNCYDRQECVATEENPQVYFCCCEGNFCNERFTHLPEAGGPEVTYEPPPTAPTLLTVLAYSLLPIGGLSLIVLLAFWMYRHRKPPYGHVDIHEDPGPPPPSPLVGLKPLQLLEIKARGRFGCVWKAQLMNDFVAVKIFPLQDKQSWQSEREIFSTPGMKHENLLQFIAAEKRGSNLEVELWLITAFHDKGSLTDYLKGNIITWNELCHVAETMSRGLSYLHEDVPWCRGEGHKPSIAHRDFKSKNVLLKSDLTAVLADFGLAVRFEPGKPPGDTHGQVGTRRYMAPEVLEGAINFQRDAFLRIDMYAMGLVLWELVSRCKAADGPVDEYMLPFEEEIGQHPSLEELQEVVVHKKMRPTIKDHWLKHPGLAQLCVTIEECWDHDAEARLSAGCVEERVSLIRRSVNGTTSDCLVSLVTSVTNVDLPPKESSI
B2: ACTRIIB (activin receptor type IIB, ACVR2B): tunicamycin (TM) + CHX (protein)
parent chain: B1 parent chain

Assays:
[1] = immunofluorescence, confocal microscopy; settings: glycan lost; control: untreated cells
[2] = cycloheximide chase 0-12 h, western blot; settings: glycan lost; control: CHX alone

| Protein | localisation_or_trafficking [1] | degradation_or_half_life [2] |
| --- | --- | --- |
| B1 | decreases | – |
| B2 | – | decreases |
